# Assay results reported in patent US20240133890A1.
# Target: WSTF (BAZ1B) (UniProt Q9UIG0)
# UniProt Q9UIG0, sequence (Q9UIG0 whole entry): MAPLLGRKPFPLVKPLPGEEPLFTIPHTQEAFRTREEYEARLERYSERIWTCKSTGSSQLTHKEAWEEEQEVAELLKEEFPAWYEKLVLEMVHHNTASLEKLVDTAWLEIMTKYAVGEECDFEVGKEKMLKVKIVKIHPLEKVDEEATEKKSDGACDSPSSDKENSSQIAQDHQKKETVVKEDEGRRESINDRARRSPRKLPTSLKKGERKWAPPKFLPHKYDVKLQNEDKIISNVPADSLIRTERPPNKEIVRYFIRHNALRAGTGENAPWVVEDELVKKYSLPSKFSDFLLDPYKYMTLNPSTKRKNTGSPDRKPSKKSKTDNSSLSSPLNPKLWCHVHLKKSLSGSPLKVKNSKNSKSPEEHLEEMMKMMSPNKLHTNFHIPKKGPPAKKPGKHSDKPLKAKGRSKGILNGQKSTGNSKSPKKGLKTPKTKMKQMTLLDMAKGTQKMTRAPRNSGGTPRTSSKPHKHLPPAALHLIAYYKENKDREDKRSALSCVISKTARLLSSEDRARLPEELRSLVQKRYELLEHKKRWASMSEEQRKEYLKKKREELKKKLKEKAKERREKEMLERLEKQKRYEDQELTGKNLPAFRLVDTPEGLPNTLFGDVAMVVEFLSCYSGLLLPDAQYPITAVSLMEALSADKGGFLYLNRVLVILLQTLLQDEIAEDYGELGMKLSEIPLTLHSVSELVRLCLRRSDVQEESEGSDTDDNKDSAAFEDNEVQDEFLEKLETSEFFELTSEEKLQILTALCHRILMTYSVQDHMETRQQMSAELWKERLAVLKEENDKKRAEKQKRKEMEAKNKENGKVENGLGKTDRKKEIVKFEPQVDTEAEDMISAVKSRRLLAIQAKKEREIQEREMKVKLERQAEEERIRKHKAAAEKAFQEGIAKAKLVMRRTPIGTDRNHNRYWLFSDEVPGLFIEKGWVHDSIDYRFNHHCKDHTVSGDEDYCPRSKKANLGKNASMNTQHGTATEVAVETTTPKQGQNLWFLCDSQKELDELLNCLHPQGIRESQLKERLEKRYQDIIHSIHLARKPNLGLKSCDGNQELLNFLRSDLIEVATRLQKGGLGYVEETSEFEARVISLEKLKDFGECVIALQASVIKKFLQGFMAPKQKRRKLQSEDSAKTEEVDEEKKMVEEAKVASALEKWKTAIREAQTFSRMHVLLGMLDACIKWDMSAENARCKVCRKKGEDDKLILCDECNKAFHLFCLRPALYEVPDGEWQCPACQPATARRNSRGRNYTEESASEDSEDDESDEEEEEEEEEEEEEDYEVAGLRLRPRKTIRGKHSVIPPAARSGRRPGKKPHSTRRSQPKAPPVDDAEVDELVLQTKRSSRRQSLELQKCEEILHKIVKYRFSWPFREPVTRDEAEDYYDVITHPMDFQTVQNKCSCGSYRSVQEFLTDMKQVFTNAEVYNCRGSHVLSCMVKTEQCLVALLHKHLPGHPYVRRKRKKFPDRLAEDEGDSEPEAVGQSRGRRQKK
substance,measurement,value
JMJD6,"level of WSTF hydroxylation (Western blot with Ab1, MCF-7 nucleoprotein)","after JMJD6 knockdown or mutation, the level of WSTF hydroxylation was significantly reduced"
